# From patent publication US20030143656A1
# What was measured:
# [1] = target: PIFtide (human); experiment: method not stated (reference mark lost)
# [2] = target: endogenous PDK1 (293 cells) (human) (UniProt O15530); experiment: cell-based or functional assay
# Chain of endogenous PDK1 (293 cells) (human) (O15530 whole entry): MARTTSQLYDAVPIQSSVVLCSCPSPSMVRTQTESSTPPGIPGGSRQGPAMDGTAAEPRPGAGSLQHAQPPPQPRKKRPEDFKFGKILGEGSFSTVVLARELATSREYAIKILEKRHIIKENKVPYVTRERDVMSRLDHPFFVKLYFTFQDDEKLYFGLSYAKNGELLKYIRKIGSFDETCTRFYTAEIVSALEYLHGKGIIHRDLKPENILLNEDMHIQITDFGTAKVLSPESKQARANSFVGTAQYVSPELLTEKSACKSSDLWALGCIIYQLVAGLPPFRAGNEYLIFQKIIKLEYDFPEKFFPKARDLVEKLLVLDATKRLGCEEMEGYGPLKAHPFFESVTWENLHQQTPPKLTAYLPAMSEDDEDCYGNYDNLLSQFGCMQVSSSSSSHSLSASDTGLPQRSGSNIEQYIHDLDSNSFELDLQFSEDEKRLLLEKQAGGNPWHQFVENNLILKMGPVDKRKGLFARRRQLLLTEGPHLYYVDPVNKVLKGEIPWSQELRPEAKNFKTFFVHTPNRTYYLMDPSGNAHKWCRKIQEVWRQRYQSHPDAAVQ
# Chain of PIFtide (human) (peptide, as listed by the source): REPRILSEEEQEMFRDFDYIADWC
fold decrease in affinity for PIFtide [1],activation of p70 S6K on cotransfection with GST-F977A-PIF [2],Substance
10 fold,,GST-PDK1 I119A (from UniProt O15530 1-556) (enzyme)
,50%,GST-F977A-PIF (from UniProt Q16513 908-984)
